Publication PMC2836074 (The Journal of Biological Chemistry, 2009)

Columns and labels:
EGFP-F1LΔBH3 = EGFP-F1LΔBH3 (vaccinia virus strain Copenhagen, UniProt P68450 1-226, lacks amino acids 93–108); assay: co-IP
EGFP-F1LΔBH1 = EGFP-F1LΔBH1 (vaccinia virus strain Copenhagen, UniProt P68450 1-226, lacks amino acids 144–156); assay: co-IP

B1: HA-Bak (natural protein)
chain: MASGQGPGPPRQECGEPALPSASEEQVAQDTEEVFRSYVFYRHQQEQEAEGVAAPADPEMVTLPLQPSSTMGQVGRQLAIIGDDINRRYDSEFQTMLQHLQPTAENAYEYFTKIATSLFESGINWGRVVALLGFGYRLALHVYQHGLTGFLGQVTRFVVDFMLHHCIARWIAQRGGWVAALNLGNGPILNVLVVLGVVLLGQFVVRRFFKS
EGFP-F1LΔBH3
  fold decrease in Bak binding compared with wild-type F1L: 3 fold
EGFP-F1LΔBH1
  fold decrease in Bak binding compared with wild-type F1L: 8 fold
